± gives the uncertainty stated by the source.

This series can be described thus: amyloid nucleation score (Sup35N fusion, yeast selection) (log enrichment); library NNK1; higher = more nucleation; inactive = no reads after selection. A digest of the protocol: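 Output and input plasmid inserts were sequenced by Illumina after psi-negative yeast carrying Sup35N fused to peptides of 20 random codons had been induced 24 hours with 100 μM copper sulfate and grown 7 days at 30°C on medium lacking adenine and uracil. The nucleation score is the DiMSum log enrichment of output over input reads, centred on the mode score of non-aggregating sequences. Sequences with under 100 input reads were excluded.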
For the substance GHYVDLKSLYPPMTCAMACM, the amyloid nucleation score is -0.125 ± 0.38.

Take GIAAYNGDLWMRLCYL: the amyloid nucleation score is -0.255 ± 0.88.

Regarding GIAVHGMLDRMVSRRGLRAW, the amyloid nucleation score came out at 0.387 ± 0.97.

GIFNYWRYYMVDV yielded an amyloid nucleation score of 0.673 ± 0.29.

GIGVKSEGHVINDFYKLRER showed an amyloid nucleation score of 0.002 ± 0.45.

With GIKRHIEDCLV, the amyloid nucleation score was 1.04 ± 0.46.

As for GILDTLKVEVLGSVVHS, the amyloid nucleation score turned out to be 1.01 ± 0.59.

The substance GIPSKTFDVCSSPNIKSILF had an amyloid nucleation score of 0.317 ± 1.2.

In the case of GKENSVTGHRGYSDVAVGMQ, the amyloid nucleation score is 0.286 ± 1.4.

Regarding GKFDSGYVKGTVHNEAEFQP, the amyloid nucleation score is -0.223 ± 0.31.

Consider GKPLTTVVAIIF, for which the amyloid nucleation score is 3.56 ± 0.11.

For GKSCGHFWGRLNEGGQKLRV, the amyloid nucleation score is -0.772 ± 0.64.

In the case of GKSLLKSYCIRMPLFSRNTL, the amyloid nucleation score result is “inactive”.

Consider GLALHGIEWVCCVQDQSFDR, for which the amyloid nucleation score came out at 7.08 ± 0.071.

The substance GLGDVKNHEFNHVDAEGSGR yielded an amyloid nucleation score of -0.741 ± 0.83.

As to GLGWHFTL, the amyloid nucleation score is -0.407 ± 0.28.

Substance GLIMYPRGYMCKSIT had an amyloid nucleation score of 0.813 ± 0.43.

Turning to GLIQYPGFIASMYPSDNTSC, the amyloid nucleation score was 0.135 ± 0.41.

For GLKMFKMCLCNMALDIF, the amyloid nucleation score amounted to 7.428 ± 0.073.

In turn, GLLNTYS displayed an amyloid nucleation score of 0.626 ± 1.2.

Consider GLLRAA, for which the amyloid nucleation score was 0.296 ± 0.27.

Take GLMVHRDFGIECLQHETHFG: the amyloid nucleation score worked out at 0.074 ± 0.26.

Regarding GLMWKAN, the amyloid nucleation score amounted to 0.537 ± 0.67.

As to GLNALSFNQV, the amyloid nucleation score was -0.383 ± 0.48.

Regarding GLPLNA, the amyloid nucleation score entry was “inactive”.

As for GLPLYVHVAVEVIWL, the amyloid nucleation score stood at 0.058 ± 0.65.

In turn, GLQEVCWC showed an amyloid nucleation score of -1.67 ± 2.4.

For GLRKYVKPVYSMCVFFLKWA, the amyloid nucleation score was found to be 1.02 ± 0.58.

Substance GLSIQ came in with an amyloid nucleation score of 0.288 ± 0.44.

On to GLSWYCGHLAKR, for which the amyloid nucleation score stood at 1.48 ± 0.49.

For the substance GLVIELNPFKSLLSSPWVFF, the amyloid nucleation score worked out at 0.335 ± 0.71.

Consider GLVNLADTGTVVDPSKGWLG, for which the amyloid nucleation score is -0.441 ± 0.61.

Take GLVSQPFWCSYKCGGHNHKG: the amyloid nucleation score was found to be 0.314 ± 1.4.

Substance GLYLNGPVINMWVVVASREV gave an amyloid nucleation score of 7.512 ± 0.044.

On to GMAHDWSRQWVRVSDAVLLR, for which the amyloid nucleation score was -0.004 ± 0.6.

The substance GMDLQVMSHCASIHNNS registered an amyloid nucleation score of -0.199 ± 0.37.

As for GMVSIII, the amyloid nucleation score came out at 0.276 ± 0.51.

Turning to GNCPNQIGAYVVKIIRMPAL, the amyloid nucleation score was -0.311 ± 0.55.

For the substance GNLRNMLMTYSSSVGNKLIF, the amyloid nucleation score was -0.344 ± 0.57.

As for GNNRCDVIIMVFFK, the amyloid nucleation score stood at 1.7 ± 0.12.

In the case of GNRGSSKV, the amyloid nucleation score entry is “inactive”.

GNSVIDRSFGIFNCYEGLSC displayed an amyloid nucleation score of 1.62 ± 0.72.

With GNVLDFCPWLVGLLCHGGGV, the amyloid nucleation score was 0.149 ± 0.35.

For GNWLSS, the amyloid nucleation score was -0.082 ± 0.9.

The substance GPFSDVAGQKVRCGRLVATR returned an amyloid nucleation score of -0.212 ± 0.66.

Substance GPRVSPVKFIVRLGQVNLDR showed an amyloid nucleation score of 0.448 ± 0.61.

On to GQHSFGAECTVQSCGWGCRW, for which the amyloid nucleation score amounted to 1.33 ± 0.34.

GQRSLT showed an amyloid nucleation score of -0.088 ± 0.24.

Take GRAFG: the amyloid nucleation score is -0.557 ± 2.1.

GREMYRLLHLNVEYTHGTRY: the amyloid nucleation score is 3.79 ± 0.075.

The substance GRFFVHEVGMFQTSGQ showed an amyloid nucleation score of -0.187 ± 1.3.

GRGHREPIVKDAAGRLGSWS registered an amyloid nucleation score of -0.421 ± 0.94.

The substance GRGKPMTLASKFIAGRFVF yielded an amyloid nucleation score of 0.521 ± 0.97.

Turning to GRGTGAVFVYVEWSLYGN, the amyloid nucleation score is -0.036 ± 0.47.

For the substance GRHRRSRRM, the amyloid nucleation score result was “inactive”.

As to GRLVVGIREGIIS, the amyloid nucleation score was 0.058 ± 0.35.

For GRMAGMFWNCGGCMEMDSVC, the amyloid nucleation score was 1.14 ± 0.68.

In the case of GRMLLM, the amyloid nucleation score was -1.25 ± 1.1.

The substance GRQGYMAYFVMALLLCIFTH had an amyloid nucleation score of 0.128 ± 0.48.

GRRGKWVSSPWGGELKTCSK displayed an amyloid nucleation score of 4.24 ± 0.084.

GRRVFGRYVQINNGPISRFF gave an amyloid nucleation score of 0.266 ± 1.1.

As for GRSLAFTSYCLMKGLTSVSV, the amyloid nucleation score was -0.383 ± 0.29.

GRSRTRTRLLPGSEGGYDRP showed an amyloid nucleation score of -1.64 ± 0.98.

Substance GRTAQAVRGGRAVVYAGLKL yielded an amyloid nucleation score of -0.157 ± 0.36.

The substance GRVKINKNLSVYKYINFRDS yielded an amyloid nucleation score of 2.04 ± 0.21.

With GRVQL, the amyloid nucleation score was 0.405 ± 0.48.

In turn, GSALIE registered an amyloid nucleation score of 1.5 ± 0.74.

Consider GSCSYSYCTNFVRTMYGAYG, for which the amyloid nucleation score turned out to be 0.379 ± 0.71.

Substance GSDVREWLVQQSKSMFLWVW returned an amyloid nucleation score of -0.226 ± 0.47.

As to GSEFQVLSFF, the amyloid nucleation score worked out at 0.419 ± 0.58.

Turning to GSLIIHHQWFFVIAMRVSLS, the amyloid nucleation score was 0.419 ± 0.53.

Substance GSRFPFLVVDMCSSELVKR showed an amyloid nucleation score of 0.577 ± 0.63.

GSRHFRDSVLSDVNVWYLKN gave an amyloid nucleation score of -0.026 ± 0.35.

Regarding GSRNCIWLFFVVWV, the amyloid nucleation score result was “inactive”.

GSRSQCAPSQFLAAGTHNKF registered an amyloid nucleation score of -1.17 ± 0.84.

For GSSENRFF, the amyloid nucleation score entry was “inactive”.

For the substance GSSKWISSHRVIDDFSYKRG, the amyloid nucleation score stood at 0.406 ± 0.49.

Substance GTFALIN yielded an amyloid nucleation score of -1.2 ± 0.68.

Turning to GTFDSN, the amyloid nucleation score was 0.045 ± 0.46.

Substance GTFVEISRYIDGCHLVFGNR showed an amyloid nucleation score of 2.38 ± 0.16.

GTGHVFQCCRMTLLQSSLDG showed an amyloid nucleation score of -0.832 ± 0.88.

For the substance GTKNLCDYIWPGPPGSVVRN, the amyloid nucleation score was -0.159 ± 0.56.

Consider GTMTRWWFVVCTEKTAGTNR, for which the amyloid nucleation score turned out to be 0.374 ± 0.44.

GTNWDMLCYIVLTYGVVRAF registered an amyloid nucleation score of -0.116 ± 0.51.

Take GTTSVSAINGR: the amyloid nucleation score was -0.545 ± 0.8.

Take GTTVPGFCITKSVKTMGRNQ: the amyloid nucleation score was 0.643 ± 0.39.

As for GVCFLAR, the amyloid nucleation score stood at 0.707 ± 0.74.

Substance GVCKTYSIDKAPI returned an amyloid nucleation score of 0.823 ± 0.51.

On to GVCRLLGKVAMLV, for which the amyloid nucleation score was -2.1 ± 2.4.

Turning to GVGDTNCSEL, the amyloid nucleation score amounted to 0.178 ± 0.33.

On to GVGRRMSMWYVCDAGWEAWR, for which the amyloid nucleation score stood at 3.16 ± 0.094.

In the case of GVRAVLFETWCRN, the amyloid nucleation score is -0.693 ± 1.

Substance GVSMFHRFSSHNWMCCWFVG showed an amyloid nucleation score of 7.654 ± 0.064.

GVTLYRRGIFGMSL showed an amyloid nucleation score of 0.338 ± 0.66.

GVVLGYRCLNMGLKALWSYV: the amyloid nucleation score is -0.248 ± 0.48.

Substance GVWLVSDRKVADVRSNYCFD returned an amyloid nucleation score of -2.18 ± 2.7.

GWFAR displayed an amyloid nucleation score of -0.191 ± 0.57.

Turning to GWIGCHDWGLRLIAHKMRGR, the amyloid nucleation score stood at 0.938 ± 0.88.

With GWLIR, the amyloid nucleation score result was “inactive”.

Take GWRNGKCFDGASPEWVLGHA: the amyloid nucleation score is -0.39 ± 1.2.

The substance GWVLCRGSLFIWWFWTSLRL showed an amyloid nucleation score of -0.106 ± 1.2.

In the case of GYACTFVLA, the amyloid nucleation score was found to be 0.136 ± 0.51.

Regarding GYCLVYLAIGGFARILGYPV, the amyloid nucleation score is -0.461 ± 1.1.

The substance GYEHVKG came in with an amyloid nucleation score of -0.195 ± 0.46.

Turning to GYFLPGFEMLCYNRRIWYIM, the amyloid nucleation score is -1.03 ± 0.61.

On to GYNGCYNIFVHRSDKMAALR, for which the amyloid nucleation score amounted to 0.515 ± 0.59.

The substance GYNKHLGNSGSYVHQNGAQF had an amyloid nucleation score of 1.06 ± 0.39.

GYRHRYQQTKGIVTHSMYFD displayed an amyloid nucleation score of 1.27 ± 0.9.

Substance GYTKILMRHSNFCMTK yielded an amyloid nucleation score of 0.428 ± 0.19.

HAGFGFVSSCCYLHWLTGDR: the amyloid nucleation score amounted to 3.98 ± 0.095.

The substance HALEKLDKFRFTAS yielded an amyloid nucleation score of 0.484 ± 0.64.

For the substance HCRNS, the amyloid nucleation score turned out to be 2 ± 0.3.

The substance HCSSVQFPRTGVIEVALQKD returned an amyloid nucleation score of -0.17 ± 0.57.

Substance HCTRINVHFYNIYTVLVSFS displayed an amyloid nucleation score of 5.33 ± 0.073.

Substance HCWFRSWPWTISK yielded an amyloid nucleation score of -0.913 ± 1.5.

Substance HDASSFSLMRKFRCGC had an amyloid nucleation score of 0.333 ± 0.69.

HDNISLG registered an amyloid nucleation score of 3.39 ± 0.12.

HDREDWGDQSWYFILAWIFK: the amyloid nucleation score is -0.745 ± 0.44.

HECRWRTVYNQ gave an amyloid nucleation score of 0.786 ± 0.93.

HESYVVRIYIFEDRRYLCEV displayed an amyloid nucleation score of 0.037 ± 0.6.

In turn, HFHNSCLYIGRVHIGHTLGV gave an amyloid nucleation score of 7.826 ± 0.052.

Regarding HFVAVFMFYGWPSWYSYSES, the amyloid nucleation score is -0.93 ± 0.35.

The substance HGHENVDWQKITDIGGRENC had an amyloid nucleation score of -0.715 ± 1.9.

HGLVNG registered an amyloid nucleation score of 0.437 ± 0.52.

HGMIRWYSYTSCHSYKVSGH showed an amyloid nucleation score of -0.021 ± 0.33.

Regarding HGSECSWRLLLRHPLMGTSG, the amyloid nucleation score was -0.089 ± 0.49.

HGSVRSLSYRLVSLYLSRMC showed an amyloid nucleation score of 0.748 ± 0.45.

HGYSNNVARYWA: the amyloid nucleation score is 0.372 ± 1.4.

Consider HHAFFDIPRVRGEYECFAGI, for which the amyloid nucleation score turned out to be 0.192 ± 0.25.

For the substance HHDMGSFFAVQSTSGTEGMG, the amyloid nucleation score was -0.099 ± 0.37.

Take HHVIRVDIMMFVVKSSELYN: the amyloid nucleation score result was “inactive”.

Take HICSRDVLLRQY: the amyloid nucleation score is 1.41 ± 0.8.

For HILSSVLHSGVCMWTVITPY, the amyloid nucleation score was 0.72 ± 0.71.

HILYKRFFFGSCSSGCHL gave an amyloid nucleation score of -0.428 ± 0.47.

Substance HINFIYRLRSFLQSCKNFSS came in with an amyloid nucleation score of -1.23 ± 2.1.

In turn, HITMRLFTPYLTYNMPMSLK yielded an amyloid nucleation score of 0.063 ± 0.24.

The substance HIVVFKYVCYSHEAVYWRPE gave an amyloid nucleation score of 0.305 ± 1.2.

The substance HKFVRIDGEN registered an amyloid nucleation score of 1.54 ± 0.84.

HKIDINSVLLLKCVVYVGCL: the amyloid nucleation score was 4.12 ± 0.066.

With HKRAEKHNHFITWSIQSLRA, the amyloid nucleation score came to 0.653 ± 0.33.

On to HKSILVDVILSHFSSCSRCH, for which the amyloid nucleation score was 5.3 ± 0.074.

Turning to HLDCGCRTFGLTWYWTKDCV, the amyloid nucleation score is -0.143 ± 0.49.
